# Measured values reported in paper PMC9237840.
# T1: GST-Rib-PSQ DNA-binding domain (Drosophila melanogaster, UniProt Q7KF43 363-414)
# T1 sequence: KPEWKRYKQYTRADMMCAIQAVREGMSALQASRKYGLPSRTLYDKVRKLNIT
# T2: Ribbon (Rib) full-length (Drosophila melanogaster, UniProt Q7KF43 1-661)
# T2 sequence: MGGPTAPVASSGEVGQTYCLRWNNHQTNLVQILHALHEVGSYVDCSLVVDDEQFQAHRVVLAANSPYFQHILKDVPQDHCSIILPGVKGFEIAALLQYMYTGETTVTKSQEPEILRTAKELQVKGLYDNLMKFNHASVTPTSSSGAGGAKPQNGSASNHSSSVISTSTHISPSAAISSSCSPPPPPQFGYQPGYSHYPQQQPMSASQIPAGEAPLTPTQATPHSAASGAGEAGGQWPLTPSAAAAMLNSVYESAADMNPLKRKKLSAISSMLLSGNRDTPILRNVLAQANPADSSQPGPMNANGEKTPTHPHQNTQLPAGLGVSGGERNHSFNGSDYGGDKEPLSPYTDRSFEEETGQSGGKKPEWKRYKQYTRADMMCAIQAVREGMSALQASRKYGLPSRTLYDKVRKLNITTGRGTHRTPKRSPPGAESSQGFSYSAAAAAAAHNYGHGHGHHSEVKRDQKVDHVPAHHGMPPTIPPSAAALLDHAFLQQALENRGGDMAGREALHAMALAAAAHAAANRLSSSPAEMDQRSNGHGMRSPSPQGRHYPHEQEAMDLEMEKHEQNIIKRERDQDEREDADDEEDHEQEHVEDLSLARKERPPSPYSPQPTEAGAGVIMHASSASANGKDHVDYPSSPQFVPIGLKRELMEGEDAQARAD
# T3: CrebA full-length (Drosophila melanogaster, UniProt P29747 1-516)
# T3 sequence: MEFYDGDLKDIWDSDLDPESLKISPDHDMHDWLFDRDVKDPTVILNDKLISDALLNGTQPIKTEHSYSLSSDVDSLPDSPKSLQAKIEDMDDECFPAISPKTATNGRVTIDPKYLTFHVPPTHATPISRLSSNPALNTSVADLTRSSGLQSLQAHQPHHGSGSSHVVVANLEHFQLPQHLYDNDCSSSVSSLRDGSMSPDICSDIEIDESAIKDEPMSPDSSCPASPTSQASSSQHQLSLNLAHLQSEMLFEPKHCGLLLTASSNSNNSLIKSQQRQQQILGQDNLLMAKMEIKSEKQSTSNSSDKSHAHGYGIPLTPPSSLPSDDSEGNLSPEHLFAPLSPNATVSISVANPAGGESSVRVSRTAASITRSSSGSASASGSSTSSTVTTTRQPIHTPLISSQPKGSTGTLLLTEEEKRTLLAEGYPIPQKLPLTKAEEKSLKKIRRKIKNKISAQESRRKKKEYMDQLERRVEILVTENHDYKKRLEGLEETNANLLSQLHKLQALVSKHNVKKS
# Experiments:
# Test in all cases: EMSA
# [1] = biological target: T1, GST-Rib-PSQ DNA-binding domain
# [2] = biological target: T2, Ribbon (Rib) full-length
# [3] = biological target: T3, CrebA full-length
Binder,binding result [1],binding result [2],binding result [3]
RpL11 (dsDNA) DNA 1: CGCGGCCACACTATCCTTTCCTTCTTTTCTTACAAGTTTCCGGTGAGTGC DNA 2: GCACTCACCGGAAACTTGTAAGAAAAGAAGGAAAGGATAGTGTGGCCGCG,binds,binds,
RpS27A (dsDNA) DNA 1: TTCAACTTCCTGTCACGCTGTGTGTGTGTTCTTTCTTTCCTTTGATTCTG DNA 2: CAGAATCAAAGGAAAGAAAGAACACACACACAGCGTGACAGGAAGTTGAA,binds,binds,
P24.1 (dsDNA) DNA 1: CCGATAGCATATACGTGGGTCCGCAGTGC DNA 2: GCACTGCGGACCCACGTATATGCTATCGG,,,binds
RpL17 (dsDNA) DNA 1: ACTGCCATTTCCTTTCTTTTTCGTTCCACGTTTCCGGTGAGTGCATGTGC DNA 2: GCACATGCACTCACCGGAAACGTGGAACGAAAAAGAAAGGAAATGGCAGT,binds,binds,
RpS10b (dsDNA) DNA 1: ATCCCTTCCGTTTCCCTTTCTTTTCGTCTTCACGTTTCCGGTGAGTGCGT DNA 2: ACGCACTCACCGGAAACGTGAAGACGAAAAGAAAGGGAAACGGAAGGGAT,binds,binds,
RpS17 (dsDNA) DNA 1: ACACAACCACCCTGGTCACACGGCATCCTTCTTTTTCTTTCGTTTCCGGC DNA 2: GCCGGAAACGAAAGAAAAAGAAGGATGCCGTGTGACCAGGGTGGTTGTGT,binds,binds,
RpL7A (dsDNA) DNA 1: AACTGCCACTTCCTTTCTTTTTCGTTCCACGTTTCCGGTGAGTGCATGTG DNA 2: CACATGCACTCACCGGAAACGTGGAACGAAAAAGAAAGGAAGTGGCAGTT,binds,binds,
RpS18 (dsDNA) DNA 1: GGCAGCCACATTAATTCGGCCTTCTTTTCTTTTCCCGTTTCCGGTGAGTG DNA 2: CACTCACCGGAAACGGGAAAAGAAAAGAAGGCCGAATTAATGTGGCTGCC,binds,binds,
RpL6 (dsDNA) DNA 1: CCCTGGTCACACCGCTCTAGACATAACCTTCCTTTTCCAATAATTTTTGT DNA 2: ACAAAAATTATTGGAAAAGGAAGGTTATGTCTAGAGCGGTGTGACCAGGG,binds,binds,
RpL19 (dsDNA) DNA 1: TTCCGGCTGTCAAATTTTTCTTTCTTTCCTAGCCACGACGAGGTCGACAG DNA 2: CTGTCGACCTCGTCGTGGCTAGGAAAGAAAGAAAAATTTGACAGCCGGAA,binds,binds,
TSN-2 (dsDNA) DNA 1: ATCTGATTTGGTGACGTTGGCACCCTGCA DNA 2: TGCAGGGTGCCAACGTCACCAAATCAGAT,,,binds
RpS3 (dsDNA) DNA 1: AACGTGTCTCGCGCGGGCACACTGGCCTCTTTCTTTTCTGCGCACCACGT DNA 2: ACGTGGTGCGCAGAAAAGAAAGAGGCCAGTGTGCCCGCGCGAGACACGTT,binds,binds,
RpS17* (T to G in TC-rich motif) (dsDNA) DNA 1: ACACAACCACCCTGGTCACACGGCATCCGGCGGGGGCGGGCGGGGCCGGC DNA 2: GCCGGCCCCGCCCGCCCCCGCCGGATGCCGTGTGACCAGGGTGGTTGTGT,binds,binds,
